# Measured values published in paper PMC9576799, “Discovery of small molecule inhibitors that effectively disrupt IQGAP1-Cdc42 interaction in breast cancer cells” (Scientific Reports, 2022).
# Assays:
# GST-IQGAP1-C = target: T1, GST-IQGAP1-C (Homo sapiens, UniProt P46940); experiment: GST pull-down assay and Western blotting; format: binding; settings: 2 h at 4 °C, Western blot with anti-Cdc42
# T1 construct: the C-terminal half of IQGAP1 (comprising amino acids 864–1657) containing a GST-tag; made in house; host or cells: Escherichia coli BL-21
# T1 sequence (P46940 864-1657): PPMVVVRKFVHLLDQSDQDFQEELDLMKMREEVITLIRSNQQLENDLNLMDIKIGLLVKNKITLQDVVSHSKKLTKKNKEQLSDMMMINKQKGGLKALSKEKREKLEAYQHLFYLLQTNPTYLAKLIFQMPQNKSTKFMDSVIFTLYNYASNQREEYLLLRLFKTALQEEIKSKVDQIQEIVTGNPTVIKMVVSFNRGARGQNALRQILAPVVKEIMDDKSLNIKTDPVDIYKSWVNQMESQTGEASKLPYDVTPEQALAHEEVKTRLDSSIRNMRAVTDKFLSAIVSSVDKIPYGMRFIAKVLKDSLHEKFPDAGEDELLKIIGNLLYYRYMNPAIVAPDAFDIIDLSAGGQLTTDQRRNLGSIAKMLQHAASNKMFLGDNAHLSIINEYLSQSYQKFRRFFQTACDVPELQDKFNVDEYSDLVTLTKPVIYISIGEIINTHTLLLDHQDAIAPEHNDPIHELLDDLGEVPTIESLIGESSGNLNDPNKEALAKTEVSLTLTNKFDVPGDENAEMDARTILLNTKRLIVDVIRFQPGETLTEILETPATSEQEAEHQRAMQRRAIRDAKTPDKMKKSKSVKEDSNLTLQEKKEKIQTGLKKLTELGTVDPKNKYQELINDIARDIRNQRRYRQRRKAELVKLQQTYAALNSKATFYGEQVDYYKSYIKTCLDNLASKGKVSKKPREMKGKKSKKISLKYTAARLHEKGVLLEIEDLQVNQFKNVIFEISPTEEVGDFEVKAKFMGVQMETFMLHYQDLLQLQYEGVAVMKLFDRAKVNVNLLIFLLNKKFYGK
# Description: (a) Schematic representation of IQGAP1 protein. The C-terminal half of IQGAP1 (amino acids 864–1657) was used in the HTRF assay. (b) GST pull-down assay. GST-IQGAP1-C was incubated with His-tagged Cdc42-N17 or Cdc42-Q61L for 2 h at 4 °C. GST alone was incubated with Cdc42-Q61L as the negative control. Complexes were isolated using glutathione-Sepharose and resolved by SDS-PAGE. The gel was cut at 70 kDa. The upper part of the gel was stained with Coomassie blue. The lower portion of the gel was transferred to PVDF membrane and probed with anti-Cdc42 antibodies. (c) Scheme of the HTRF assay in 384–well format showing fluorescent labeled GST-IQGAP1-C (donor Europium cryptate, K) and His-Cdc42-Q61L (acceptor XL665). (d) Time resolved fluorescence was detected at 615 and 665 nm on the Biotek Synergy using recombinant proteins. The Y-axis represents the ratio of acceptor to donor emission wavelength multiplied by 10,000. The means and standard errors of two replicates are shown. The green bar (Buffer) indicates samples without His-Cdc42. […] No single label is printed for the pair, so the substance label joins the two printed names.
# [1] = target: C-terminal half of IQGAP1 (amino acids 864–1657); parameters: method as in PMID 17984089; settings: scintillation proximity assay; read-out: equilibrium dissociation constant (Kd) of Cdc42-Q61L binding to IQGAP1 fragment; cited from earlier work
Substance,binding to IQGAP1 in GST pulldown (GST-IQGAP1-C),Kd [1]
"Cdc42-N17: dominant negative Cdc42 mutant, negative control",no detectable binding,
Cdc42-Q61L: constitutively active Cdc42 mutant construct that binds IQGAP1 with high affinity,binds to the C-terminal region of IQGAP1,24 ± 4 nM
